Each block holds one binder with its values, some of them ahead of it.
Tests used:
[1] = target: T1, HerA (thermophilic archaeon, Sulfolobus …, UniProt Q97WG8 1-500); assay: fluorescence anisotropy; no nucleotide; HerA monomer concentration; FA: 5 nM dsDNA, 100 mM NaCl, 20 mM Hepes-NaOH pH 8.0, 30 min room temperature (with nucleotide: 2 mM plus 5 mM MgCl2); native MS: 200 mM ammonium acetate pH 7.0-7.5, 1:1 protein:DNA, 30 min room temperature; conditions: protein: recombinant; chain copies: 6; label: 5'-fluorescein on strand 1; blunt
T1 sequence: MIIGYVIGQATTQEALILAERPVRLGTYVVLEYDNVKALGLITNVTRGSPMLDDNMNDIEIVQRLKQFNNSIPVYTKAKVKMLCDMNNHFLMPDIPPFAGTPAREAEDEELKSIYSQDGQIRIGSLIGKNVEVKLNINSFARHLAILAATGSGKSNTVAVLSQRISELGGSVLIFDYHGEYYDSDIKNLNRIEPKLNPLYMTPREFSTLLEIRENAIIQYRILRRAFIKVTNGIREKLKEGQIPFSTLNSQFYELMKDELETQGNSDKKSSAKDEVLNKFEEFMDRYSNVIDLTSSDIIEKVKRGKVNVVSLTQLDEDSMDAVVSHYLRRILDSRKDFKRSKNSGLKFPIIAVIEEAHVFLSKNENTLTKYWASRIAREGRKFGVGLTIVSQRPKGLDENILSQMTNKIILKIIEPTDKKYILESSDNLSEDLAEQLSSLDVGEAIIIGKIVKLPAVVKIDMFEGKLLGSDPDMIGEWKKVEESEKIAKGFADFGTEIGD

[2] = target: T1, HerA; assay: fluorescence anisotropy; 2 mM ATPgS, 5 mM MgCl2; HerA monomer concentration; FA: 5 nM dsDNA, 100 mM NaCl, 20 mM Hepes-NaOH pH 8.0, 30 min room temperature (with nucleotide: 2 mM plus 5 mM MgCl2); native MS: 200 mM ammonium acetate pH 7.0-7.5, 1:1 protein:DNA, 30 min room temperature; conditions: protein: recombinant; chain copies: 6; label: 5'-fluorescein on strand 1; blunt
[3] = target: T2, HerA;NurA H306A (thermophilic archaeon, Sulfolobus …, UniProt Q97WG8;Q97WH1 1-500;1-339, |H306A); assay: fluorescence anisotropy; no nucleotide; Hill fit; monomeric HerA concentration; FA: 5 nM dsDNA, 100 mM NaCl, 20 mM Hepes-NaOH pH 8.0, 30 min room temperature (with nucleotide: 2 mM plus 5 mM MgCl2); native MS: 200 mM ammonium acetate pH 7.0-7.5, 1:1 protein:DNA, 30 min room temperature; conditions: protein: recombinant;recombinant; tags: ;; chain copies: 6;2; label: 5'-fluorescein on strand 1; blunt
T2 sequence 1: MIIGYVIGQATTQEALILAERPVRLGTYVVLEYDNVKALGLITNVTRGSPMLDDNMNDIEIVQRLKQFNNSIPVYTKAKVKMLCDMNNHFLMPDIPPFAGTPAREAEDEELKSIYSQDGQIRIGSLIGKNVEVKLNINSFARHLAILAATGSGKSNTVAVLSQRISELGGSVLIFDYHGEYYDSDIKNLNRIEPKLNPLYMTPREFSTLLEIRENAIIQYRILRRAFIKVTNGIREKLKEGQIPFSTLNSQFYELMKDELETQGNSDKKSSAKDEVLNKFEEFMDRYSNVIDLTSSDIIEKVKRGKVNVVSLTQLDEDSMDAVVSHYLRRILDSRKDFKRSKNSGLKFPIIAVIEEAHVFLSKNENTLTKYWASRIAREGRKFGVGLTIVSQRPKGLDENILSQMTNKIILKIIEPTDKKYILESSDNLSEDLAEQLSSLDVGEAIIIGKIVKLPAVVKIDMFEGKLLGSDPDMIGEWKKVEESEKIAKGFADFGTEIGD
T2 sequence 2: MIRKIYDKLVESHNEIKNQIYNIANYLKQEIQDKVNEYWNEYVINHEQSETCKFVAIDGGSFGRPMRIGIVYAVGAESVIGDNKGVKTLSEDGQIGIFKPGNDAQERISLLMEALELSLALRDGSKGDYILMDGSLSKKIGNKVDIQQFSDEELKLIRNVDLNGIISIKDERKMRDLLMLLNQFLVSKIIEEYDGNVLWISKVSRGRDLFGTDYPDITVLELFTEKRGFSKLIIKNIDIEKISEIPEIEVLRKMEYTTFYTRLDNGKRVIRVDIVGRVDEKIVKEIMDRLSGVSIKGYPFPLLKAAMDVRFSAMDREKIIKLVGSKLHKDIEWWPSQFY

[4] = target: T3, HerA helicase, wild type (Sulfolobus solfataricus) (S. solfataricus, UniProt Q97WG8 1-500); assay: native MS; HerA incubated with NurA (2:3 molar ratio of monomers), no dsDNA, no nucleotide, 200 mM ammonium acetate; conditions: both partners purified
T3 construct: HerA helicase of the thermophilic archaeon Sulfolobus solfataricus; In solution a mix of hexamer and heptamer; the hexamer is the form found with NurA; No tag is named in the purification; Expression and constructs may be described in the supplementary materials and methods; also called apo-HerA; wild-type HerA; source: cells lysed by sonication, lysate heated at 70°C, purified (Heparin HP, …)
T3 sequence: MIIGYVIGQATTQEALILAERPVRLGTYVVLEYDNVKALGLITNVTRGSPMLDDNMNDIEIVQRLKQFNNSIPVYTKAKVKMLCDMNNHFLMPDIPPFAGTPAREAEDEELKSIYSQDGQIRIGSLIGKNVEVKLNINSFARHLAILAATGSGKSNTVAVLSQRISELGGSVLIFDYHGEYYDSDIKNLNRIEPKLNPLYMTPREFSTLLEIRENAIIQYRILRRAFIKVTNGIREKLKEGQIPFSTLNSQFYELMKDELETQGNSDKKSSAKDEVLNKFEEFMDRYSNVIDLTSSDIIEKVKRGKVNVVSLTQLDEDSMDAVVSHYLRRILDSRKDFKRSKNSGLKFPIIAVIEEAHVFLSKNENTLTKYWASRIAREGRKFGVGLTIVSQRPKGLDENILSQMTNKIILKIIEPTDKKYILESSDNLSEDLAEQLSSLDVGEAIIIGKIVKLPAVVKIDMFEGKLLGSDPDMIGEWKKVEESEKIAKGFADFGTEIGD

[5] = target: the molecule itself; assay: as above
[6] = target: T3, HerA helicase, wild type (Sulfolobus …); assay: native MS; HerA incubated with NurA and a 25 bp blunt-ended dsDNA (protein and DNA 1:1, 30 min at room temperature), no nucleotide, 200 mM ammonium acetate; conditions: both partners purified
[7] = target: T4, HerA K154A (thermophilic archaeon, Sulfolobus …, UniProt Q97WG8 1-500, K154A); assay: native MS; FA: 5 nM dsDNA, 100 mM NaCl, 20 mM Hepes-NaOH pH 8.0, 30 min room temperature (with nucleotide: 2 mM plus 5 mM MgCl2); native MS: 200 mM ammonium acetate pH 7.0-7.5, 1:1 protein:DNA, 30 min room temperature; conditions: protein: recombinant; chain copies: 6; blunt
T4 sequence: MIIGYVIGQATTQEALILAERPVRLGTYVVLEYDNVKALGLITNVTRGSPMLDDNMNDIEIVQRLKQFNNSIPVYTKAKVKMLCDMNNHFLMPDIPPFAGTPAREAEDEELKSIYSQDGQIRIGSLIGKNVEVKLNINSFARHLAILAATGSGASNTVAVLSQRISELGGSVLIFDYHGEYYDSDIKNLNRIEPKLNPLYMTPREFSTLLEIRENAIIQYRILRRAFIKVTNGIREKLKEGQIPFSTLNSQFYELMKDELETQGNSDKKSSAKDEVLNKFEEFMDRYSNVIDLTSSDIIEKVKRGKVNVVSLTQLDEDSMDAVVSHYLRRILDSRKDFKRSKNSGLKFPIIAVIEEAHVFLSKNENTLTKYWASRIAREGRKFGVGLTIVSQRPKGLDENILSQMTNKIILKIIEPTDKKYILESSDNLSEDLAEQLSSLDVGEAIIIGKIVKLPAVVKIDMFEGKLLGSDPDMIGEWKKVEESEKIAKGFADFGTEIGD

[8] = target: T5, HerA;NurA (thermophilic archaeon, Sulfolobus …, UniProt Q97WG8;Q97WH1 1-500;1-339, |); assay: native MS; no nucleotide; dsDNA intact; FA: 5 nM dsDNA, 100 mM NaCl, 20 mM Hepes-NaOH pH 8.0, 30 min room temperature (with nucleotide: 2 mM plus 5 mM MgCl2); native MS: 200 mM ammonium acetate pH 7.0-7.5, 1:1 protein:DNA, 30 min room temperature; conditions: protein: recombinant;recombinant; tags: ;; chain copies: 6;2; blunt
T5 sequence 1: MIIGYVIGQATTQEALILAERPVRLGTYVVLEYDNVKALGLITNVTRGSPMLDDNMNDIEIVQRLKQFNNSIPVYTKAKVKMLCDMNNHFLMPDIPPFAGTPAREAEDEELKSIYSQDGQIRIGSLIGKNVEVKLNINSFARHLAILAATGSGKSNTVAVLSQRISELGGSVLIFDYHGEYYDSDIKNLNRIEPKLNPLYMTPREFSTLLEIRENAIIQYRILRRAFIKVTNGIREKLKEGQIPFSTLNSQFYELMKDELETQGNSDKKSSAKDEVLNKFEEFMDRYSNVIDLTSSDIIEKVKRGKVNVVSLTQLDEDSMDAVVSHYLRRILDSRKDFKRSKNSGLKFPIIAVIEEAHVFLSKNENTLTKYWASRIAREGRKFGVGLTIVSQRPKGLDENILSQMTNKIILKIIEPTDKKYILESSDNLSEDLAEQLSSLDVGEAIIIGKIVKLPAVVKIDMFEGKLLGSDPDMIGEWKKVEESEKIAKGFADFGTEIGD
T5 sequence 2: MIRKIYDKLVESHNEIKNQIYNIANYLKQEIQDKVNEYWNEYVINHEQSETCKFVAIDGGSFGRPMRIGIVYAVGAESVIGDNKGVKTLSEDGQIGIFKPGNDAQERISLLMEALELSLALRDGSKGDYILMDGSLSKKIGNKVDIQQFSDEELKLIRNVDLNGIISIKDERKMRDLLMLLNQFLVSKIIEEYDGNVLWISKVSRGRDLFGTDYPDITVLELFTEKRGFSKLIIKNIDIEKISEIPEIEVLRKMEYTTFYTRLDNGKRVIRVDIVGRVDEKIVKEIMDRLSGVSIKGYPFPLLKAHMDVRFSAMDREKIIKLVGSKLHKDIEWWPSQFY

B1: 5'-fluorescein 25 bp dsDNA (dsDNA)
DNA 1: GTAGTCCGGACGACAAACGCCGACT
DNA 2: AGTCGGCGTTTGTCGTCCGGACTAC
- Kd [1]: 4.85 ± 0.47 µM
- Kd [2]: 3.22 ± 0.27 µM
- Kd [3]: 0.51 ± 0.0304 µM

- binding result [4]: binds
B2: NurA nuclease, wild type (Sulfolobus solfataricus) (enzyme, S. solfataricus)
chain: MIRKIYDKLVESHNEIKNQIYNIANYLKQEIQDKVNEYWNEYVINHEQSETCKFVAIDGGSFGRPMRIGIVYAVGAESVIGDNKGVKTLSEDGQIGIFKPGNDAQERISLLMEALELSLALRDGSKGDYILMDGSLSKKIGNKVDIQQFSDEELKLIRNVDLNGIISIKDERKMRDLLMLLNQFLVSKIIEEYDGNVLWISKVSRGRDLFGTDYPDITVLELFTEKRGFSKLIIKNIDIEKISEIPEIEVLRKMEYTTFYTRLDNGKRVIRVDIVGRVDEKIVKEIMDRLSGVSIKGYPFPLLKAHMDVRFSAMDREKIIKLVGSKLHKDIEWWPSQFY
notes: NurA nuclease of the thermophilic archaeon Sulfolobus solfataricus; Homodimer; No tag is named in the purification; also called NurA^WT; NurA dimer; source: cells lysed by sonication, lysate heated at 70°C, purified (Heparin HP, HiTrap Q HP)
- stoichiometry N [5]: 2

- binding result [6]: binds
B3: NurA H306A, nuclease-inactive mutant (Sulfolobus solfataricus) (enzyme, S. solfataricus)
chain: MIRKIYDKLVESHNEIKNQIYNIANYLKQEIQDKVNEYWNEYVINHEQSETCKFVAIDGGSFGRPMRIGIVYAVGAESVIGDNKGVKTLSEDGQIGIFKPGNDAQERISLLMEALELSLALRDGSKGDYILMDGSLSKKIGNKVDIQQFSDEELKLIRNVDLNGIISIKDERKMRDLLMLLNQFLVSKIIEEYDGNVLWISKVSRGRDLFGTDYPDITVLELFTEKRGFSKLIIKNIDIEKISEIPEIEVLRKMEYTTFYTRLDNGKRVIRVDIVGRVDEKIVKEIMDRLSGVSIKGYPFPLLKAAMDVRFSAMDREKIIKLVGSKLHKDIEWWPSQFY
notes: NurA nuclease of Sulfolobus solfataricus with H306A; Made to prevent dsDNA degradation in the HerA-NurA-dsDNA complex; source: cells lysed by sonication, lysate heated at 70°C, purified (Heparin HP, HiTrap Q HP)

B4: 25 bp dsDNA (dsDNA)
DNA 1: GTAGTCCGGACGACAAACGCCGACT
DNA 2: AGTCGGCGTTTGTCGTCCGGACTAC
- binding result [7]: no binding
- binding result [8]: binds

Source: article PMC5715905, “Mechanistic insight into the assembly of the HerA–NurA helicase–nuclease DNA end resection complex” (Nucleic Acids Research, 2017)
